# Target: bovine serum albumin (BSA) (bovine, UniProt P02769 25-607)
# Experiment: ELISA on BSA-coated microtitre plates, detection with peroxidase-labelled RGS-6xHis antibody
# Procedure: For the ELISA detection of the specific β2-glycoprotein-binding activity of the scFv-CAD reaction module, serial dilutions of scFv-CAD in the indicated concentration were applied to microtitre plates coated with β2-glycoprotein and, for control purposes, with bovine serum albumin (BSA). The binding was determined using a peroxidase-labelled RGS-6×-His antibody (Qiagen, Hilden) and a tetramethylbenzidine (TMB) colour reaction by measurement of the O.D. 450.
# Characterisation of the binding reaction of the CAD-IgG-CH3-Knob02 modubody to the target β2-glycoprotein. […] The binding was determined using a peroxidase-labelled RGS-6×-His antibody (Qiagen, Hilden) and a tetramethylbenzidine (TMB) colour reaction by measurement of the O.D. 450 nm.
# In order to determine whether the CAD-IgG-CH3-Knob02 modubody has retained the β2-glycoprotein-binding activity of the scFv-CAD, purified CAD-IgG-CH3-Knob02 preparations were tested by immunoassays. […] The microtitre plates were washed and the binding of the CAD-IgG-CH3-Knob02 modubody was determined using a peroxidase-labelled RGS-6×-His antibody (Qiagen, Hilden) and a tetramethylbenzidine (TMB) colour reaction by measurement of the O.D. 450 nm. […] Specific binding to β2-glycoprotein was detected even at a concentration of the CAD-IgG-CH3-Knob02 modubody of 19 ng/ml.
# Sequence of bovine serum albumin (BSA) (P02769 25-607 limits assumed): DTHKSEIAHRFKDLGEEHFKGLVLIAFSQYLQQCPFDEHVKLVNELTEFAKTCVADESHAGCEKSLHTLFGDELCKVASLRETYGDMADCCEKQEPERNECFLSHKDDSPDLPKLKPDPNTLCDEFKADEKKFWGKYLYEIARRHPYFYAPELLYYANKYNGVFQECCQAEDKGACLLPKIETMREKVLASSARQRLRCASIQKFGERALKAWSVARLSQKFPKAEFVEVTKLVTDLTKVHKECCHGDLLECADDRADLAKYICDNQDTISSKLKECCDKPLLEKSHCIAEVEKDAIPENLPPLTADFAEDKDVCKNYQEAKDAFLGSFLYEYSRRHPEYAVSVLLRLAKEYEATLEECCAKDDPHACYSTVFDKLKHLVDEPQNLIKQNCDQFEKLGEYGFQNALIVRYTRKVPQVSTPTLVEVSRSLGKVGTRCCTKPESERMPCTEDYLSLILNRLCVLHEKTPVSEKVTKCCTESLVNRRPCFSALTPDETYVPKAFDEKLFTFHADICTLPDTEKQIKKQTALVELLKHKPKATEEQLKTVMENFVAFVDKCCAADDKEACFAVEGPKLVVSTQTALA
row,Binder,binding result
1,"scFv-CAD β2-glycoprotein-binding module (artificial protein sequence scFv-RP-CAD-P) (scFv, Expressed in E. coli from pQE-80L as a 30 kDa protein; also called CAD-scFv; scFV-CAD reaction module; not shown: RGS-6xHis tag from expression vector pQE-80L (detected with anti-RGS-6xHis antib)) scFv: LVPRGSDVLMTQTPLSLPVSLGDQASISCRSSQSIVHSNGNTYLEWYLQKPGQSPKLLIYKVSNRFSGVPDRFSGSGSGTDFTLKISRVEAEDLGVYYCFQGSHVPYTFGGGTKLEIKRTGSGSGGGGSGGGGSGGGGSSGGGGSGGGGSGGGGSGSGEVQLQQSGPELVKPGASVKISCKASGYTFTDYYMHWVRQRPGQGLEWIGEIYPGSGNTSYNEKFRGKATLTADKSSSTAYMQLSSLTSEDSAVYFCARGTLDYTMDYWGQGTSVTVSS",no binding (tested: 0.019-10 µg/ml)
2,"single-chain CAD-IgG-CH3-Knob02 modubody (designed binder, Domain order is VL-linker-VH-linker-IgG-CH3-Knob02, 44 kDa, made in E. coli; also called CAD-IgG-CH3-Knob32 (as misprinted once); not shown: RGS-6xHis tag from vector pQE-80L) LVPRGSDVLMTQTPLSLPVSLGDQASISCRSSQSIVHSNGNTYLEWYLQKPGQSPKLLIYKVSNRFSGVPDRFSGSGSGTDFTLKISRVEAEDLGVYYCFQGSHVPYTFGGGTKLEIKRTGSGSGGGGSGGGGSGGGGSSGGGGSGGGGSGGGGSGSGEVQLQQSGPELVKPGASVKISCKASGYTFTDYYMHWVRQRPGQGLEWIGEIYPGSGNTSYNEKFRGKATLTADKSSSTAYMQLSSLTSEDSAVYFCARGTLDYTMDYWGQGTSVTVSSGSGGGGSGGGGSGGGGSSGGGGSGGGGSGGGGSGSGEPQVYTLPPSREEMTKNQVSLYCLVKGFYPSDIAVEWESNGQPENNYKTYPPVLDSDGSFYLYSKLTVDKSRWQQGNVFSCSVMHEALHNHYTQKSLSL",no binding (tested: 0.019-10 µg/ml)

# Source: patent US20160046703A1 (ORGENTEC DIAGNOSTIKA, published 2016)
